Experiments:
[1] = biological target: T1, human CD3 (human, UniProt P07766 23-207); test: cell binding, human T-cells; parameters: Bmax: unit not given here
T1 construct: whole, on cells; also called CD3 on human T-cells

[2] = biological target: T2, cyno CD3 (cyno (cynomolgus monkey), UniProt Q95LI5 22-198); test: cell binding, cynomolgus T-cells
T2 construct: whole, on cells; also called CD3 on Cynomolgus T-cells

[3] = biological target: T1, human CD3; test: cell binding, activated human PBMC; E. coli protein
[4] = biological target: T2, cyno CD3; test: cell binding, activated cyno PBMC; E. coli protein
[5] = biological target: T2, cyno CD3; test: cell binding, cyno CD3 (activated cyno PBMC); cyno CD3 (second number of the cell)
Method: (§1) Testing for CD3 binding with activated human and cyno PBMC: To distinguish between the humanized anti-CD3 antibodies generated, binding to human CD3 was tested using activated human PBMCs (n=2). The activation of PBMCs and subsequent fluorescence-based CD3 binding assays were followed as described previously (see for example, Angew Chem Int Ed Engl, 52(46):12101-12104, 2013). […] The binding of the remaining 6 humanized antibodies to both human and cyno CD3 using activated human and cyno PBMCs, respectively, was titrated. […] The six (6) humanized anti-CD3 antibodies were obtained as follows: Fab1, Fab2 and Fab3 wildtype were generated by combination of LC ((vL1.2+CL); (SEQ.ID. NO:7)) and HC ((vH1.2+CH1); (SEQ.ID. NO:1)), ((vH1.1+CH1); (SEQ.ID. NO:2)) and ((vH1.0+CH1); (SEQ.ID. NO:3)) respectively. Fab4, Fab 5 and Fab6 wildtype were generated by combination of LC ((vL1.1+CL); (SEQ.ID. NO:8)) and HC ((vH1.2+CH1); (SEQ.ID. NO:1)), ((vH1.1+CH1); (SEQ.ID. NO:2)) and ((vH1.0+CH1); (SEQ.ID. NO:3)) respectively.
(§2) Binding of Folate-conjugated Fabs to human and cyno CD3: Binding of E. coli produced and Folate-conjugated low-affinity variants of humanized anti-CD3 Fabs was performed as described in the above Examples.

[6] = biological target: T1, human CD3; test: cell binding, human CD3 (activated human PBMC); human CD3 (first number of the cell)
Method: as §1, §2

[7] = biological target: T1, human CD3; test: cell binding, human CD3, 50 nM SFA present

T1 sequence (P07766 23-207): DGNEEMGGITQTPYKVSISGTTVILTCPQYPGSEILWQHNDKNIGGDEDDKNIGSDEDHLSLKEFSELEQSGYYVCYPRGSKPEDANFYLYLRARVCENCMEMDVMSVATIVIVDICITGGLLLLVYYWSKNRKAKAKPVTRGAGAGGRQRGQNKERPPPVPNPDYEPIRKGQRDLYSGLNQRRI
T2 sequence (Q95LI5 22-198): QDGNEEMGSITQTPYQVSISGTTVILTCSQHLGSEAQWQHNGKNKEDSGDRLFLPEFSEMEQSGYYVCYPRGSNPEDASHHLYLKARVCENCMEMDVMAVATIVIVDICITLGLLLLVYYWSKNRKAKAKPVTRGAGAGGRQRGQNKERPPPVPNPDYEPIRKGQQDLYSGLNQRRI

B1: Fab1-HK129-LL157-pAF (Fab, V domains shown)
VH: EVQLVESGGGLVQPGGSLRLSCAASGFTFNTYAMNWVRQAPGKGLEWVARIRSKYNNYATYYADSVKDRFTISRDDSKNILYLQMNSLKTEDTAVYYCVRHGNFGNSYVSWFAYWGQGTLVTVSS
VL: QAVVTQEPSLTVSPGGTVTLTCRSSTGAVTTSNYANWVQQKPGQAPRGLIGGTNKRAPGTPARFSGSLLGGKAALTLSGAQPEDEAEYYCALWYSNLWVFGGGTKLTVLG
modifications: pAF at LL157 (Kabat); pAF at HK129 (Kabat)
notes: From E. coli; double pAF variant, unconjugated; also called Fab1-HK129pAF-LL157pAF
Bmax [1]: 27900
Kd [1]: 0.604 nM
Bmax [2]: 23400
Kd [2]: 0.955 nM

B2: Fab1-HA114-pAF1 (Fab, V domains shown)
VH: EVQLVESGGGLVQPGGSLRLSCAASGFTFNTYAMNWVRQAPGKGLEWVARIRSKYNNYATYYADSVKDRFTISRDDSKNILYLQMNSLKTEDTAVYYCVRHGNFGNSYVSWFAYWGQGTLVTVSS
VL: QAVVTQEPSLTVSPGGTVTLTCRSSTGAVTTSNYANWVQQKPGQAPRGLIGGTNKRAPGTPARFSGSLLGGKAALTLSGAQPEDEAEYYCALWYSNLWVFGGGTKLTVLG
modifications: para-acetyl-phenylalanine (pAF) at HA114 (Kabat)
notes: From E. coli; also called Fab1 HA114pAF, unconjugated
EC50 [3]: 1.35 nM
EC50 [4]: 1.33 nM

B3: Fab1-HS115-pAF1 (Fab, V domains shown)
VH: EVQLVESGGGLVQPGGSLRLSCAASGFTFNTYAMNWVRQAPGKGLEWVARIRSKYNNYATYYADSVKDRFTISRDDSKNILYLQMNSLKTEDTAVYYCVRHGNFGNSYVSWFAYWGQGTLVTVSS
VL: QAVVTQEPSLTVSPGGTVTLTCRSSTGAVTTSNYANWVQQKPGQAPRGLIGGTNKRAPGTPARFSGSLLGGKAALTLSGAQPEDEAEYYCALWYSNLWVFGGGTKLTVLG
modifications: para-acetyl-phenylalanine (pAF) at HS115 (Kabat)
notes: From E. coli; also called Fab1 HS115pAF, unconjugated
EC50 [3]: 1.26 nM
EC50 [4]: 1.76 nM

B4: Fab7-HK129-Folate (Fab, V domains shown)
VH: EVQLVESGGGLVQPGGSLRLSCAASGFTFNTYAMNWVRQAPGKGLEWVARIRSKYNNYATYYADSVKDRFTISRDDSKNILYLQMNSLKTEDTAVYYCARHGNFGNSYVSWFAYWGQGTLVTVSS
VL: QAVVTQEPSLTVSPGGTVTLTCRSSTGAVTTSNYANWVQQKPGQAPRGLIGGTNKRAPWVPARFSGSLLGGKAALTLSGAQPEDEAEYYCALWYSNLWVFGGGTKLTVLG
modifications: pAF at HK129 (Kabat) conjugated to folate (oxime)
notes: also called Fab7 (E. coli, folate-conjugated)
EC50 [5]: 20.2 nM
EC50 [6]: 23.4 nM

B5: Fab10-HK129-Folate (Fab, V domains shown)
VH: EVQLVESGGGLVQPGGSLRLSCAASGFTFSTYAMNWVRQAPGKGLEWVARIRSKYNNYATYYADSVKDRFTISRDDSKNILYLQMNSLKTEDTAVYYCVRHGNFGNSYVSWFAYWGQGTLVTVSS
VL: QAVVTQEPSLTVSPGGTVTLTCRSSTGAVTTSNYANWFQQKPGQAPRGLIGGTNKRAPGVPARFSGSLLGGKAALTLSGAQPEDEAEYYCALWYSNLWVFGGGTKLTVLG
modifications: pAF at HK129 (Kabat) conjugated to folate (oxime)
notes: also called Fab10 (E. coli, folate-conjugated)
EC50 [5]: 99.5 nM
EC50 [6]: 83.6 nM

B6: Fab1-HK129-pAF (Fab, V domains shown)
VH: EVQLVESGGGLVQPGGSLRLSCAASGFTFNTYAMNWVRQAPGKGLEWVARIRSKYNNYATYYADSVKDRFTISRDDSKNILYLQMNSLKTEDTAVYYCVRHGNFGNSYVSWFAYWGQGTLVTVSS
VL: QAVVTQEPSLTVSPGGTVTLTCRSSTGAVTTSNYANWVQQKPGQAPRGLIGGTNKRAPGTPARFSGSLLGGKAALTLSGAQPEDEAEYYCALWYSNLWVFGGGTKLTVLG
modifications: para-acetyl-phenylalanine (pAF) at HK129 (Kabat)
notes: From E. coli; carries no folate and no PEG; also called Fab1-HK129-pAF1; anti-CD3 Fab1-HK129-pAF control
EC50 [3]: 1.14 nM
EC50 [4]: 1.15 nM
Bmax [1]: 32000
Kd [1]: 1.59 nM
EC50 [7]: 1.92 nM
Bmax [2]: 26600
Kd [2]: 2.67 nM

B7: Fab1-HA114-Folate (Fab, V domains shown)
VH: EVQLVESGGGLVQPGGSLRLSCAASGFTFNTYAMNWVRQAPGKGLEWVARIRSKYNNYATYYADSVKDRFTISRDDSKNILYLQMNSLKTEDTAVYYCVRHGNFGNSYVSWFAYWGQGTLVTVSS
VL: QAVVTQEPSLTVSPGGTVTLTCRSSTGAVTTSNYANWVQQKPGQAPRGLIGGTNKRAPGTPARFSGSLLGGKAALTLSGAQPEDEAEYYCALWYSNLWVFGGGTKLTVLG
modifications: pAF at HA114 (Kabat) conjugated to folate (oxime)
notes: From E. coli; Fab-folate conjugate
EC50 [3]: 1.27 nM
EC50 [4]: 1.37 nM

From patent US20210317213A1 (AMBRX, published 2021)
